# Assay results published in the nanobody polyreactivity screen of Harvey et al. (2022).
# Assay: yeast display, Sf9 membrane polyspecificity reagent, FACS + sequencing; frameworks hold sequencing errors
# Summary of the method: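 Sorting gates, low and high (top ~1%), were placed on anti-HA fluorescence to track expression and on streptavidin fluorescence to track reagent binding. A clone's polyreactivity label is taken from the gate it came out of. The reagent was 10% biotinylated, detergent-solubilized Sf9 membrane, applied for 1 hour at 4 °C to galactose-induced yeast display cells.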
row,Sequence,polyreactivity (PSR sort gate)
1,QVQLVESGGGLVQAGGSLRLSCAASGFTLIADDMGGYRQAPGKERELVAGISSGDSTDYADSVKGRFTISRDNAKNTVYVQMNSLTPEDTAVYYCAATWYGDYSRYDFYYWGQGTQVTVSS,low polyreactivity
2,QVQLVESGGGLVQAGGSLRLSCAASGGIFRGYAMGWYRQAPGKERELVATITFSGTSTNYADSVKGRFTISRDNAKNTVYFQMNRLKPEDTAVYYFAAGPVFGGGGYDYWGKGTQVTVSS,low polyreactivity
3,QVQLVESGGGLVQAGGSLRLSCAASGIIFIIYTMGWYRQSPGKERELVAAISWSGGSTYYADSVKGRFTISRDNAKNTVYLQMNSLKPEDTAVYYCAADVANWYGGGNSDYDHEYWGQGPQVTVSS,low polyreactivity
4,QVQLVESGGGVVQAGGSLRLSCAASGSIFAGIAMGWYRQAPGKERELVADITSGDSTYYADSLKGRFTISRDNAKNTVYLQMNSLTPEDTAVYYCNNQLRVPQGAFFWFHGMDYWGQGTQVTVSS,low polyreactivity
5,LVHLVESGGGLVQAGGSLRLSCAASGITFTGYAMGWYRQAPGKERELVAAITWSSGSTYYADSVKGRFTISRDNAKNTVYLQMNSLKPEDTAVYYCNAGYWYDGPDYIPEYDYWGQGTQVTVSS,low polyreactivity
6,QVQLLESGGGLVQAGGSLRLTCAASGSTFKRYAMGWYRQAPGKERELVAAITTSGGSTYYADSVKGRFTISRDNAKNTVYLQMNSLEPEDTAVYYCAAVWPGRRTTNYYFPGHGYQYGYWGQGTQVTVSS,high polyreactivity
7,QFQLVESGGGLVQAGGSLRLSCAASGFNFGWYDMGWYRQAPGKERELVASISWSGSSTYYADSVKGRFTISRDNAKNTVYLQMNSLKPEDTAVYYCATPYWRRYDYWGQGTQVTVSS,high polyreactivity
8,QVQLVESGGGLVQAGGSLRLSCDASGFTFGRNAMGWYRQAPGKERELVAAISSSGGTTYYADSVKGRFTISRDNAKNTVYLQMNSLKPEDTAVYYCAAGYYYRYDYWGQGTQVTVSS,high polyreactivity
9,QVQLVESGGGLVQAGGSLRLSCAASGSTFYFNAMGWYRQAPGKERELVATISDNDGSTNYADSVKGRFTISRDNAKNTVYLQMNSLKPEDTAVYYCNADWYYYYEEDDYWGQGTQVTVSS,low polyreactivity
10,QVQLVESGGGLVQAGGSLRLSCAASGSTFYWYAMGWYRQAPGKERELVAVITVRGGSTYYADSVKGRFTISRDNAKNTVYLQMNSLKPEDTAVYYCAAEPTSYLYKYWYDYWGEGTQVTVSS,low polyreactivity
11,QVQLVESGGGLVQAGGSLRLSCAASGSIFDGNAMGWYRQAPGKERELVASISDSGGSTYYADSVKGRFTISRDNAKNTVYLQMNSLKPEDTAVYYCAKVFVRFYDYYINYWGQGTQVTVSS,low polyreactivity
12,QVHLVESGGGLVQAGGSLRLSCAASGRTFHVYAMGWYRQAPGKEREFVAFISRRGGSTYYADSVKGRFTISRDNAKNTVYLQMNSLKPEDTAVYYCNAKYPSNYVVQDDYWGQGTQVTVSS,high polyreactivity
13,QVQLVESGGGLVQAGGSLRLICAASGSTFEHYAMGWYRPAPGKERELVAAITRRGGSTYYADSVKGRFTISRDNAKNTVYLQMNSLKPEDTAVYDCNTDLRYSYYLPGYDYWGQGPQVTVSS,high polyreactivity
14,QVLLVESGGGLFQAGGRLRVSCAASGSTLLRYAMGWYRQAPGKERELVAAISGTGSRTYYADSVKGRFTISRDNAKNTVYLKMISLNPEDTAVYYCYACPYRLTEIDYWGQGTPVTVSS,high polyreactivity
15,QVQLVESGGGLVQAGGSLRLSCAASGRTFTVNAMGWSRQAPGKERELVAAISTSTGRTYYADSVKGRFTISRDNAKNTVYLQMNSLKPEDTAVYYCAAQSPYRGYYYTYYLYDYWGQGTQVTVSS,high polyreactivity
16,QVQLVESGGGLVQAGGSLRLSCAASGRIFAVNAMGWYRQAPGKERELVAAINGGGSTNYADSVKGRFTISRDNAKNTVYLQMNSLKPEDTAVYYCAADVGWRSQTRGYYWGQGTQVTVSS,high polyreactivity
17,QVQLVESGGGLVQAGGSLRLSCAASGYIFLGYDMVWYRQAPGKERELVAVINWSGGRTRYADSVKGRFTISRDNAKNTVYLQMNSLKPEDTAVYYCAAERSITYDYWGQGSQVTVSS,high polyreactivity
18,QVQLVESGGGLVQAGGSLSLSCAASGSTIGPNAMGWYRQAPGKERDLVAAINTRGGSTYYADSVKGRFTISRDHANNTVYLQMNSLKPEDTAVYYCAAEYVVWYLDRFNYWGQGTQVTVSS,high polyreactivity
19,QVQLVESGGGLVQAGGSLRLSCAASGSIIAGYTMGWYRQAPGKERELVAGIRRGGSTNYADSVKGRFTISRDNAKNTVYLQMNSLKPEDTAVYYCAAYYRLDYDYWGQGTQVTVSS,high polyreactivity
20,QVQLVESGGGLVQAGGSLRLSCAASGSTFASNAMGWYRQAPGKERELVAAISGSGGRTYYADSVKGRFTISRDNAKNTVYLQMNSLKQEDTAVYYCAADWVRRYNYWGQGTQVTVSS,high polyreactivity
21,QVQLVETGGGLVQAGGSLRLSCAASGNTFHPYAMGWYRQSPGKERELVAAITKSVGSTYYADSVKGRFTLSRDNAKNTVYLQMNSLKPEDTAVFYCARDSLQVFYPYASDDSWGQGTQVTVSS,low polyreactivity
22,QVQLVESGGGLVQAGGSLRLSCAASGRIIGYYAKGWYRQAPGKERELVAAISYSGGATYYADSVKGRFTISRDNEMNTVYLQSKSLKPEVTAVYYCAAQGRWPQRYGYWGQGTQVTVSS,high polyreactivity
23,QVQLVESGGGLVQAGGSLRLSCAASGSTFGINAMGWYRQAPGKERELVASITRRGGSTYYADSVKGRFTISRDNAKNTVYLQMNSLKPEDTAVYYCNKTYRYGTPLYDYWGQGTQVTVSS,high polyreactivity
24,QVQLVESGGGLVQAVGSLRLSCAASGFIFGTYAMGWYRQAPGKERELVAVITRGGTTYYADSVKGRFTISRDNAKNTVYLQMNSLKPEDTAVYYCAADPWALFVGDEYYYWGQGTQVTVSS,low polyreactivity
25,QVQLVESGGGLVQAGGSLRLSCAASGIIFKPYAMGWYRPAPGKERQLVAAITVNGGTTYYADSVKGRFTISRDNAKKTVNVQMNSLKPEDPAFYYCNRGRPGGPSWYHYDYWGQGTEVTVSS,high polyreactivity
26,QVQLVESGGGLVQAGGSLRLSCAASGRIFNRNVMGWYRQAPGKERELVAAISYGTGSTYYADSVKGRFTISRDNAKNTVYLQMNSLKPEDTAVYYCATRYRVRDDGEYDYWGHGTQVTVSS,high polyreactivity
27,QVQLVESGAGLVQAGVSLRLSCAASGSILTDSAMGWYIQAPGKERELVATISNGGSTNYADSVKGRFTISRDNAKNTVYLKMNSLKPEDTAVYYCNAEPGVPSWELDYWGQGTQVTVSS,low polyreactivity
28,QVQLVESGGGLVQAGGSLRLSCAPSGIIFHKYAMGWYRQAPGTDRELVAVFTGRGGSTYYADSVKGRFTISRDFAKNTVYLQMNSLKPEDTAVYYCAAVTKSWRGATWYDYWGQGTQVTVSS,high polyreactivity
29,QVQLVESVGALVQAGGSLRLSCAASGSIFIPYAMGWYRQAPGKEWEFVATITFGAASTYYADSVKGRFTISRDNAKNTVYLQMNSLKPEDTAVYYCNAEGYVYPYYREGDYWGQGTQVTVSS,low polyreactivity
30,QVQLVESGGGIVQAGGSLRLSSAASGGIFPYYVMGRYRQAPGKERELVAAINSGGTTYYADSVKGRFTISRDNAKNTVYLQMNSLKPEDTAVYYCAAEAYKHGVWDYDYWGQGTQVTVSS,low polyreactivity
